# Measurements reported in patent publication US20050054833A1 (published 2005).
# T1: human CD23 (low affinity receptor for IgE, FceRII/CD23) on 8866 cells (human, UniProt P06734 1-321)
# T1 construct: whole, on cells; Target of the first step cell ELISA (glutaraldehyde-fixed 8866 cells); also called cellular CD23; FCEL
# T1 sequence (looked up): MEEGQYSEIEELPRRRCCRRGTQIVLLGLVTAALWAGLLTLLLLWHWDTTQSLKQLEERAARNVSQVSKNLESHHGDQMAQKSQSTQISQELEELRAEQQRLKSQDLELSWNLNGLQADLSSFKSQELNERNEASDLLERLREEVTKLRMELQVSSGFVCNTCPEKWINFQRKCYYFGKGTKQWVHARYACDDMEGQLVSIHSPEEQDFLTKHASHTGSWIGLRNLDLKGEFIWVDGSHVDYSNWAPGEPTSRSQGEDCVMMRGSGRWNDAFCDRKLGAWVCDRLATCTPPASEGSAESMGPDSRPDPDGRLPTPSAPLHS
# Assays:
# [1] = molecular target: T1, human CD23 (low affinity receptor for …); experiment: cell ELISA on 8866 cells
# [2] = molecular target: T1, human CD23 (low affinity receptor for …); experiment: cell ELISA on fixed 8866 cells, hybridoma supernatant
# Description: The first step of the ELISA comprised the transferral of fifty microliters of supernatant from each well to ninety-six well plates which had previously been coated with 10⁵ 8866 cells (CD23 positive cell line) per well. These plates were made by first coating the plates with 50 μl of aqueous solution containing twenty μg/ml Poly L-Lysine (Sigma Catalog #P1399, MW 150,000-300,000) for thirty minutes at room temperature. The remaining solution was removed (“flicked out”) and the plates left to dry. Once dry, fifty μl of 8866 cells in PBS were transferred and spun at 600 g for five minutes. The 8866 cells were covalently bound to the plate by adding fifty μl 0.5% glutaraldehyde (Sigma Catalog #G6257) in phosphate buffered saline (PBS) for 15 minutes. The glutaraldehyde was removed (flicked out) and the plates blocked with one hundred fifty μl 100 mM glycine (Sigma Catalog #G-2879) in 0.1% BSA-PBS. […] The presence of the HRPO was detected by a color development after the addition of a TMB reagent (Kirkegaard & Perry, Gaithersburg, Md., Catalog #50-76-02 and 50-65-02), 100 μl/well. […] Optical density (OD) was measured at […] on a spectrophotometer (Titertek Multiscan). The OD values greater than two times the background were scored as positive.
Binder,binding result [1],binding result [2]
"primate anti-human CD23 monoclonal antibody 5E8 (antibody, V domains shown, N-linked oligosaccharide at the asparagine of the heavy chain variable region glycosylation site (Kabat 75), Monoclonal antibody from a cynomolgus macaque heterohybridoma; also called primate 5E8) VH: EVQLVESGGGLAKPGGSLRLSCAASGFRFTFNNYYMDWVRQAPGQGLEWVSRISSSGDPTWYADSVKGRFTISRENANNTLFLQMNSLRAEDTAVYYCASLTTGSDSWGQGVLVTVSS VL: DIQMTQSPSSLSASVGDRVTITCRASQDIRYYLNWYQQKPGKAPKLLIYVASSLQSGVPSRFSGSGSGTEFTLTVSSLQPEDFATYYCLQVYSTPRTFGQGTKVEIK",binds,
"primate anti-human CD23 monoclonal antibody 6G5 (antibody, V domains shown, Monoclonal antibody from a cynomolgus macaque heterohybridoma; also called primate 6G5) VH: QLQLQESGPGVVKPSETLSLTCAVSGGSVSSSNWWTWIRQPPGKGLEWIGRISGSGGATNYNPSLKSRVIISQDTSKNQFSLNLNSVTAADTAVYYCARDWAQIAGTTLGFWGQGVLVTVSS VL: QSAPTQPPSVSGSPGQSVTISCTGTSDDVGGYNYVSWYQHHPGKAPKLMIYDVAKRASGVSDRFSGSKSGNTASLTISGLQAEDEADYYCCSYTTSSTLLFGRGTRLTVLG",,binds
